Source: patent publication US20230287125A1 (LEPU BIOPHARMA, published 2023)

Tests used:
[1] = target: T1, human PD-L1-his tag protein (human, UniProt Q9NZQ7 19-238); experiment: SPR (Biacore), affinity ranking, PDL1-His
T1 construct: also called human PD-L1-His protein; recombinant PD-L1 protein; not shown: his tag

human PD-L1-Fc protein [2] = target: T2, human PD-L1-Fc protein (human, UniProt Q9NZQ7 19-238); experiment: ELISA, antibody titrated on coated human PD-L1-Fc, OD 450nm; upper right panel
T2 construct: coating antigen of the ELISAs; also called rhPD-L1-Fc; not shown: Fc
T2 sequence (Q9NZQ7 19-238 limits assumed): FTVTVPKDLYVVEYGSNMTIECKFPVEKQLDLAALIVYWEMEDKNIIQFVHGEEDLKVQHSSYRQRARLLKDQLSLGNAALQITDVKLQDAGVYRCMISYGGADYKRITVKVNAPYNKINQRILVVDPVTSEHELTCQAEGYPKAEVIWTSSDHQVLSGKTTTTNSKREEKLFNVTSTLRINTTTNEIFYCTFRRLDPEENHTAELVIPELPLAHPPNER
Protocol: (§1) To evaluate antigen binding activity, the humanized antibodies were subjected to ELISA test. Briefly, microtiter plates were coated with human PD-L1-Fc protein at 0.5 μg/ml in PBS, 100 μl/well at 4° C. overnight, then blocked with 200 μl/well of 1% BSA. Three-fold dilutions of humanized antibodies starting from 10 μg/ml were added to each well and incubated for 1 hour at 37° C. The plates were washed with PBS/Tween and then incubated with mouse-anti-human IgG Fab antibody conjugated with Horse Radish Peroxidase (HRP) for 1 hour at 37° C. After washing, the plates were developed with TMB substrate and analyzed by spectrophotometer at OD 450 nm.

human PD-L1-Fc protein [3] = target: T2, human PD-L1-Fc protein; experiment: ELISA, antibody titrated on coated human PD-L1-Fc, OD 450nm; upper left panel
Protocol: as §1

T1 sequence (Q9NZQ7 19-238 limits assumed): as above

Binder | Kd [1] [nM] | koff [1] [s⁻¹] | kon [1] [M⁻¹ s⁻¹] | EC50 (human PD-L1-Fc protein [2]) [ng/mL] | EC50 (human PD-L1-Fc protein [3]) [ng/mL]
Hu67F3G7-8 (antibody, V domains shown, humanized) VH: EVQLVQSGAEVKKPGASVKVSCKASGYIFTDFWVSWVRQAPGQGLEWIGEIYPNSGVSRYNEKFKGRVTMTVDKSISTAYMELSRLRSDDTAVYYCTKYFGYTYWFGYWGQGTLVTVSS VL: DTVLTQSPSSLSASVGDRVTITCRASKSVSTYMHWYQQKPGKAPKLLIYSASHLESGVPSRFSGSGSGTDFTLTISSLQPEDFATYYCQQSNELPVTFGGGTKVEIK | 0.0356 | 9.84e-05 | 2.76e+06 | 12.5 | –
Hu67F3G7-1 (antibody, V domains shown, humanized) VH: EVQLVQSGAEVKKPGASVKVSCKASGYTFTDFWVSWVRQAPGQGLEWMGEIYPNSGVSRYNEKFKGRVTMTVDKSISTAYMELSRLRSDDTAVYYCARYFGYTYWFGYWGQGTLVTVSS VL: DIQMTQSPSSLSASVGDRVTITCRASKSVSTYMHWYQQKPGKAPKLLIYSASHLESGVPSRFSGSGSGTDFTLTISSLQPEDFATYYCQQSNELPVTFGGGTKVEIK | 0.0655 | 0.000121 | 1.86e+06 | – | 12.5
Hu67F3G7-6 (antibody, V domains shown, humanized) VH: EVQLVQSGAEVKKPGASVKVSCKASGYTFTDFWVSWVRQAPGQGLEWMGEIYPNSGVSRYNEKFKGRVTMTVDKSISTAYMELSRLRSDDTAVYYCARYFGYTYWFGYWGQGTLVTVSS VL: DTVLTQSPSSLSASVGDRVTITCRASKSVSTYMHWYQQKPGKAPKLLIYSASHLESGVPSRFSGSGSGTDFTLTISSLQPEDFATYYCQQSNELPVTFGGGTKVEIK | 0.0587 | 0.000118 | 2.01e+06 | – | 11.8
Hu89C10H8-1 (antibody, V domains shown, humanized) VH: EVQLVESGGGLVKPGGSLRLSCAASGFTFSNYWMTWVRQAPGKGLEWVASITNTGSSTFYPDSVKGRFTISRDNAKNSLYLQMNSLRAEDTAVYYCARDTTIAPFDYWGQGTMVTVSS VL: DIQMTQSPSSLSASVGDRVTITCKASQNLNEYLNWYQQKPGKAPKRLIYKTNTLQAGVPSRFSGSGSGTDYTLTISSLQPEDFATYYCSQYNSGNTFGQGTKLEIK | 0.617 | 0.000465 | 754000 | – | 6.22
Hu89C10H8-6 (antibody, V domains shown, humanized) VH: EVQLVESGGGLVKPGGSLRLSCAASGFTFSNYWMTWVRQAPGKGLEWVASITNTGSSTFYPDSVKGRFTISRDNAKNSLYLQMNSLRAEDTAVYYCTRDTTIAPFDYWGQGTMVTVSS VL: DIQMTQSPSSLSASVGDRVTITCKASQNLNEYLNWYQQKPGKAPKRLIYKTNTLQAGIPSRFSGSGSGTDYTLTISSLQPEDFATYYCSQYNSGNTFGQGTKLEIK | 0.122 | 8.56e-05 | 701000 | – | 6.51
Hu89C10H8-5 (antibody, V domains shown, humanized) VH: EVQLVESGGGLVKPGGSLRLSCAASGFTFSNYWMTWVRQAPGKGLEWVASITNTGSSTFYPDSVKGRFTISRDNAKNSLYLQMNSLRAEDTAVYYCARDTTIAPFDYWGQGTMVTVSS VL: DIQMTQSPSSLSASVGDRVTITCKASQNLNEYLNWYQQKPGKAPKRLIYKTNTLQAGIPSRFSGSGSGTDYTLTISSLQPEDFATYYCSQYNSGNTFGQGTKLEIK | 0.736 | 0.000494 | 671000 | – | 6.37
Hu89C10H8-8 (antibody, V domains shown, humanized) VH: EVQLVESGGGLVKPGGSLRLSCAASGFTFSNYWMTWIRQAPGKGLEWVASITNTGSSTFYPDSVKGRFTISRDNAKSSLYLQMNSLRAEDTAVYYCTRDTTIAPFDYWGQGTMVTVSS VL: DIQMTQSPSSLSASVGDRVTITCKASQNLNEYLNWYQQKPGKAPKRLIYKTNTLQAGIPSRFSGSGSGTDYTLTISSLQPEDFATYYCSQYNSGNTFGQGTKLEIK | 0.102 | 6.66e-05 | 655000 | 7.41 | –
Hu89C10H8-3 (antibody, V domains shown, humanized) VH: EVQLVESGGGLVKPGGSLRLSCAASGFTFSNYWMTWIRQAPGKGLEWVASITNTGSSTFYPDSVKGRFTISRDNAKNSLYLQMNSLRAEDTAVYYCTRDTTIAPFDYWGQGTMVTVSS VL: DIQMTQSPSSLSASVGDRVTITCKASQNLNEYLNWYQQKPGKAPKRLIYKTNTLQAGVPSRFSGSGSGTDYTLTISSLQPEDFATYYCSQYNSGNTFGQGTKLEIK | 0.0785 | 5.79e-05 | 738000 | – | 6.66
Hu89C10H8-2 (antibody, V domains shown, humanized) VH: EVQLVESGGGLVKPGGSLRLSCAASGFTFSNYWMTWVRQAPGKGLEWVASITNTGSSTFYPDSVKGRFTISRDNAKNSLYLQMNSLRAEDTAVYYCTRDTTIAPFDYWGQGTMVTVSS VL: DIQMTQSPSSLSASVGDRVTITCKASQNLNEYLNWYQQKPGKAPKRLIYKTNTLQAGVPSRFSGSGSGTDYTLTISSLQPEDFATYYCSQYNSGNTFGQGTKLEIK | 0.133 | 8.51e-05 | 641000 | – | 7.28

Other lines, results leading:

Kd [1] [nM] | koff [1] [s⁻¹] | kon [1] [M⁻¹ s⁻¹] | EC50 (human PD-L1-Fc protein [2]) [ng/mL] | EC50 (human PD-L1-Fc protein [3]) [ng/mL] | Binder
0.0351 | 9.01e-05 | 2.56e+06 | 9.53 | – | Hu67F3G7-12 (antibody, V domains shown, humanized) VH: EVQLVQSGAEVKKPGASVKVSCKASGYTFTDFWVSWVRQAPGQGLEWMGEIYPNSGVSRYNEKFKGRVTMTVDKSISTAYMELSRLRSDDTAVYYCTKYFGYTYWFGYWGQGTLVTVSS VL: DTVLTQSPSSLSASVGDRVTITCRASKSVSTYMHWYQQKPGKQPKLLIYSASHLESGVPSRFSGSGSGTDFTLTISSLQPEDFATYYCQQSNELPVTFGGGTKVEIK
0.0548 | 0.000103 | 1.88e+06 | – | 10.6 | Hu67F3G7-4 (antibody, V domains shown, humanized) VH: EVQLVQSGAEVKKPGASVKVSCKASGYIFTDFWVSWVRQAPGQGLEWIGEIYPNSGVSRYNEKFKGRVTMTVDKSISTAYMELSRLRSDDTAVYYCARYFGYTYWFGYWGQGTLVTVSS VL: DIQMTQSPSSLSASVGDRVTITCRASKSVSTYMHWYQQKPGKAPKLLIYSASHLESGVPSRFSGSGSGTDFTLTISSLQPEDFATYYCQQSNELPVTFGGGTKVEIK
0.0454 | 0.0001 | 2.21e+06 | 8.45 | – | Hu67F3G7-9 (antibody, V domains shown, humanized) VH: EVQLVQSGAEVKKPGASVKVSCKASGYIFTDFWVSWVRQAPGQGLEWIGEIYPNSGVSRYNEKFKGRVTMTVDKSISTAYMELSRLRSDDTAVYYCARYFGYTYWFGYWGQGTLVTVSS VL: DTVLTQSPSSLSASVGDRVTITCRASKSVSTYMHWYQQKPGKAPKLLIYSASHLESGVPSRFSGSGSGTDFTLTISSLQPEDFATYYCQQSNELPVTFGGGTKVEIK
0.0321 | 0.000164 | 5.11e+06 | 8.25 | – | Hu67F3G7-11 (antibody, V domains shown, humanized) VH: EVQLVQSGAEVKKPGASVKVSCKASGYTFTDFWVSWVRQAPGQGLEWMGEIYPNSGVSRYNEKFKGRVTMTVDKSISTAYMELSRLRSDDTAVYYCARYFGYTYWFGYWGQGTLVTVSS VL: DTVLTQSPSSLSASVGDRVTITCRASKSVSTYMHWYQQKPGKQPKLLIYSASHLESGVPSRFSGSGSGTDFTLTISSLQPEDFATYYCQQSNELPVTFGGGTKVEIK
0.0392 | 9.34e-05 | 2.38e+06 | 10.1 | – | Hu67F3G7-10 (antibody, V domains shown, humanized) VH: EVQLVQSGAEVKKPGASVKVSCKASGYIFTDFWVSWVRQAPGKGLEWIGEIYPNSGVSRYNEKFKGRVTMTVDKSISTAYMELSRLRSDDTAVYYCTKYFGYTYWFGYWGQGTLVTVSS VL: DTVLTQSPSSLSASVGDRVTITCRASKSVSTYMHWYQQKPGKAPKLLIYSASHLESGVPSRFSGSGSGTDFTLTISSLQPEDFATYYCQQSNELPVTFGGGTKVEIK
